Consider six substances from the supplement of paper PMC5998384.

The subject of data set [1] is HeLa Kyoto. As to the kind of experiment: thermal stability score vs G1/S (z-score of summed log2 fold changes over temperatures); higher = more thermally stable than in G1/S.
Data set [2] deals with HeLa Kyoto. As to the kind of experiment: solubility in G1/S (NP-40 vs SDS abundance) (log2 ratio); higher = more soluble. The note with it: cell cycle stage: G1/S.
Data set [3] relates to HeLa Kyoto. In words: melting temperature (median over replicates), in situ; higher = more thermally stable.
Data set [4] relates to HeLa Kyoto. As to the kind of experiment: solubility change mitosis vs G1/S (difference of NP-40 vs SDS log2 ratios) (log2 ratio difference); higher = more soluble in mitosis.
Setting [5] is: cell cycle stage: early G1 (4.5 h after nocodazole release).
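Throughout, for melting temperature (median over replicates), in situ: HeLa Kyoto cells synchronized by double thymidine or nocodazole block, proteins quantified by TMT10plex mass spectrometry, three independent biological replicates.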
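Throughout, for solubility change mitosis vs G1/S (difference of NP-40 vs SDS log2 ratios): synchronized HeLa Kyoto cells (double thymidine block for G1/S, nocodazole release for mitosis), protein amounts in NP-40 versus SDS lysates quantified by mass spectrometry, three biological replicates.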
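Throughout, for solubility in G1/S (NP-40 vs SDS abundance): HeLa Kyoto cells arrested at G1/S by double thymidine block, proteins quantified by TMT10plex mass spectrometry in mild NP-40 versus SDS extracts, three biological replicates.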
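Throughout, for thermal stability score vs G1/S (z-score of summed log2 fold changes over temperatures): synchronized HeLa Kyoto cells, proteins quantified by TMT10plex mass spectrometry, three biological replicates, mitosis taken 0.5 h after nocodazole release, G1/S directly after double thymidine block.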

For “MPKKAKPTGSGKEEGPAPCKQMKLEAAGGPSALNFDSPSSLFESLISPIKTETFFKEFWEQKPLLIQRDDPALATYYGSLFKLTDLKSLCSRGMYYGRDVNVCRCVNGKKKVLNKDGKAHFLQLRKDFDQKRATIQFHQPQRFKDELWRIQEKLECYFGSLVGSNVYITPAGSQGLPPHYDDVEVFILQLEGEKHWRLYHPTVPLAREYSVEAEERIGRPVHEFMLKPGDLLYFPRGTIHQADTPAGLAHSTHVTISTYQNNSWGDFLLDTISGLVFDTAKEDVELRTGIPRQLLLQVESTTVATRRLSGFLRTLADRLEGTKELLSSDMKKDFIMHRLPPYSAGDGAELSTPGGKLPRLDSVVRLQFKDHIVLTVLPDQDQSDEAQEKMVYIYHSLKNSRETHMMGNEEETEFHGLRFPLSHLDALKQIWNSPAISVKDLKLTTDEEKESLVLSLWTECLIQVV [MINA]”, the figures for the thermal stability score in data set [1] (setting [5]) and in data set [1] (cell cycle stage: mitosis) were 3.05 and 0.952, respectively. The “solubility in G1/S (log2)” value in data set [2] was -0.11. For the same substance, the melting temperature in data set [3] (cell cycle stage: G1/S) came to 53.4 °C; in data set [3] (cell cycle stage: mitosis), 51.4 °C. In data set [4], the “solubility change mitosis (log2)” value is -0.0273.

In the case of CTSC, the thermal stability score is 5.96 in data set [1] (setting [5]) and 4.92 in data set [1] (cell cycle stage: mitosis). In data set [2], the “solubility in G1/S (log2)” value was determined as 0.136. Also, the melting temperature was 56.8 °C in data set [3] (cell cycle stage: G1/S) and 59 °C in data set [3] (cell cycle stage: mitosis). The “solubility change mitosis (log2)” value in data set [4] is -0.0557.

For the substance “MEQPKGVDWTVIILTCQYKDSVQVFQRELEVRQKREQIPAGTLLLAVEDPEKRVGSGGATLNALLVAAEHLSARAGFTVVTSDVLHSAWILILHMGRDFPFDDCGRAFTCLPVENPEAPVEALVCNLDCLLDIMTYRLGPGSPPGVWVCSTDMLLSVPANPGISWDSFRGARVIALPGSPAYAQNHGVYLTDPQGLVLDIYYQGTEAEIQRCVRPDGRVPLVSGVVFFSVETAERLLATHVSPPLDACTYLGLDSGARPVQLSLFFDILHCMAENVTREDFLVGRPPELGQGDADVAGYLQSARAQLWRELRDQPLTMAYVSSGSYSYMTSSASEFLLSLTLPGAPGAQIVHSQVEEQQLLAAGSSVVSCLLEGPVQLGPGSVLQHCHLQGPIHIGAGCLVTGLDTAHSKALHGRELRDLVLQGHHTRLHGSPGHAFTLVGRLDSWERQGAGTYLNVPWSEFFKRTGVRAWDLWDPETLPAEYCLPSARLFPVLHPSRELGPQDLLWMLDHQEDGGEALRAWRASWRLSWEQLQPCLDRAATLASRRDLFFRQALHKARHVLEARQDLSLRPLIWAAVREGCPGPLLATLDQVAAGAGDPGVAARALACVADVLGCMAEGRGGLRSGPAANPEWMRPFSYLECGDLAAGVEALAQERDKWLSRPALLVRAARHYEGAGQILIRQAVMSAQHFVSTEQVELPGPGQWVVAECPARVDFSGGWSDTPPLAYELGGAVLGLAVRVDGRRPIGARARRIPEPELWLAVGPRQDEMTVKIVCRCLADLRDYCQPHAPGALLKAAFICAGIVHVHSELQLSEQLLRTFGGGFELHTWSELPHGSGLGTSSILAGTALAALQRAAGRVVGTEALIHAVLHLEQVLTTGGGWQDQVGGLMPGIKVGRSRAQLPLKVEVEEVTVPEGFVQKLNDHLLLVYTGKTRLARNLLQDVLRSWYARLPAVVQNAHSLVRQTEECAEGFRQGSLPLLGQCLTSYWEQKKLMAPGCEPLTVRRMMDVLAPHVHGQSLAGAGGGGFLYLLTKEPQQKEALEAVLAKTEGLGNYSIHLVEVDTQGLSLKLLGTEASTCCPFP [FUK]”, the thermal stability score in data set [1] (setting [5]) was -0.477; in data set [1] (cell cycle stage: mitosis), -1.02. In data set [2], the “solubility in G1/S (log2)” value is -0.0525. Further, the melting temperature in data set [3] (cell cycle stage: G1/S) turned out to be 56.6 °C; in data set [3] (cell cycle stage: mitosis), 54.8 °C. Besides, the “solubility change mitosis (log2)” value in data set [4] is -0.182.

Consider “MSTARTENPVIMGLSSQNGQLRGPVKPTGGPGGGGTQTQQQMNQLKNTNTINNGTQQQAQSMTTTIKPGDDWKKTLKLPPKDLRIKTSDVTSTKGNEFEDYCLKRELLMGIFEMGWEKPSPIQEESIPIALSGRDILARAKNGTGKSGAYLIPLLERLDLKKDNIQAMVIVPTRELALQVSQICIQVSKHMGGAKVMATTGGTNLRDDIMRLDDTVHVVIATPGRILDLIKKGVAKVDHVQMIVLDEADKLLSQDFVQIMEDIILTLPKNRQILLYSATFPLSVQKFMNSHLQKPYEINLMEELTLKGVTQYYAYVTERQKVHCLNTLFSRLQINQSIIFCNSSQRVELLAKKISQLGYSCFYIHAKMRQEHRNRVFHDFRNGLCRNLVCTDLFTRGIDIQAVNVVINFDFPKLAETYLHRIGRSGRFGHLGLAINLITYDDRFNLKSIEEQLGTEIKPIPSNIDKSLYVAEYHSEPVEDEKP [DDX6]”, for which the thermal stability score in data set [1] (setting [5]) was 0.486; in data set [1] (cell cycle stage: mitosis) it was -0.288. Besides, the “solubility in G1/S (log2)” value in data set [2] is -0.136. The melting temperature is 51.5 °C in data set [3] (cell cycle stage: G1/S) and 51 °C in data set [3] (cell cycle stage: mitosis). In data set [4], the “solubility change mitosis (log2)” value is 0.0947.

As to “MGRSGKLPSGVSAKLKRWKKGHSSDSNPAICRHRQAARSRFFSRPSGRSDLTVDAVKLHNELQSGSLRLGKSEAPETPMEEEAELVLTEKSSGTFLSGLSDCTNVTFSKVQRFWESNSAAHKEICAVLAAVTEVIRSQGGKETETEYFAALMTTMEAVESPESLAAVAYLLNLVLKRVPSPVLIKKFSDTSKAFMDIMSAQASSGSTSVLRWVLSCLATLLRKQDLEAWGYPVTLQVYHGLLSFTVHPKPKIRKAAQHGVCSVLKGSEFMFEKAPAHHPAAISTAKFCIQEIEKSGGSKEATTTLHMLTLLKDLLPCFPEGLVKSCSETLLRVMTLSHVLVTACAMQAFHSLFHARPGLSTLSAELNAQIITALYDYVPSENDLQPLLAWLKVMEKAHINLVRLQWDLGLGHLPRFFGTAVTCLLSPHSQVLTAATQSLKEILKECVAPHMADIGSVTSSASGPAQSVAKMFRAVEEGLTYKFHAAWSSVLQLLCVFFEACGRQAHPVMRKCLQSLCDLRLSPHFPHTAALDQAVGAAVTSMGPEVVLQAVPLEIDGSEETLDFPRSWLLPVIRDHVQETRLGFFTTYFLPLANTLKSKAMDLAQAGSTVESKIYDTLQWQMWTLLPGFCTRPTDVAISFKGLARTLGMAISERPDLRVTVCQALRTLITKGCQAEADRAEVSRFAKNFLPILFNLYGQPVAAGDTPAPRRAVLETIRTYLTITDTQLVNSLLEKASEKVLDPASSDFTRLSVLDLVVALAPCADEAAISKLYSTIRPYLESKAHGVQKKAYRVLEEVCASPQGPGALFVQSHLEDLKKTLLDSLRSTSSPAKRPRLKCLLHIVRKLSAEHKEFITALIPEVILCTKEVSVGARKNAFALLVEMGHAFLRFGSNQEEALQCYLVLIYPGLVGAVTMVSCSILALTHLLFEFKGLMGTSTVEQLLENVCLLLASRTRDVVKSALGFIKVAVTVMDVAHLAKHVQLVMEAIGKLSDDMRRHFRMKLRNLFTKFIRKFGFELVKRLLPEEYHRVLVNIRKAEARAKRHRALSQAAVEEEEEEEEEEEPAQGKGDSIEEILADSEDEEDNEEEERSRGKEQRKLARQRSRAWLKEGGGDEPLNFLDPKVAQRVLATQPGPGRGRKKDHGFKVSADGRLIIREEADGNKMEEEEGAKGEDEEMADPMEDVIIRNKKHQKLKHQKEAEEEELEIPPQYQAGGSGIHRPVAKKAMPGAEYKAKKAKGDVKKKGRPDPYAYIPLNRSKLNRRKKMKLQGQFKGLVKAARRGSQVGHKNRRKDRRP [RRP12]”, the results for the thermal stability score in data set [1] (setting [5]) and in data set [1] (cell cycle stage: mitosis) were 3.24 and 7.79, respectively. In data set [2], the “solubility in G1/S (log2)” value is -0.758. Moreover, the values for the melting temperature in data set [3] (cell cycle stage: G1/S) and in data set [3] (cell cycle stage: mitosis) were 46.3 °C and 49 °C, respectively. Further, in data set [4], the “solubility change mitosis (log2)” value turned out to be 0.248.

As to “MAVKVQTTKRGDPHELRNIFLQYASTEVDGERYMTPEDFVQRYLGLYNDPNSNPKIVQLLAGVADQTKDGLISYQEFLAFESVLCAPDSMFIVAFQLFDKSGNGEVTFENVKEIFGQTIIHHHIPFNWDCEFIRLHFGHNRKKHLNYTEFTQFLQELQLEHARQAFALKDKSKSGMISGLDFSDIMVTIRSHMLTPFVEENLVSAAGGSISHQVSFSYFNAFNSLLNNMELVRKIYSTLAGTRKDVEVTKEEFAQSAIRYGQVTPLEIDILYQLADLYNASGRLTLADIERIAPLAEGALPYNLAELQRQQSPGLGRPIWLQIAESAYRFTLGSVAGAVGATAVYPIDLVKTRMQNQRGSGSVVGELMYKNSFDCFKKVLRYEGFFGLYRGLIPQLIGVAPEKAIKLTVNDFVRDKFTRRDGSVPLPAEVLAGGCAGGSQVIFTNPLEIVKIRLQVAGEITTGPRVSALNVLRDLGIFGLYKGAKACFLRDIPFSAIYFPVYAHCKLLLADENGHVGGLNLLAAGAMAGVPAASLVTPADVIKTRLQVAARAGQTTYSGVIDCFRKILREEGPSAFWKGTAARVFRSSPQFGVTLVTYELLQRWFYIDFGGLKPAGSEPTPKSRIADLPPANPDHIGGYRLATATFAGIENKFGLYLPKFKSPSVAVVQPKAAVAATQ [SLC25A12]”, the thermal stability score in data set [1] (setting [5]) is -0.889; in data set [1] (cell cycle stage: mitosis) it was -1.22. Also, the “solubility in G1/S (log2)” value in data set [2] was -0.00588. The melting temperature in data set [3] (cell cycle stage: G1/S) amounted to 56 °C; in data set [3] (cell cycle stage: mitosis), 57.1 °C. In addition, the “solubility change mitosis (log2)” value in data set [4] was -0.128.
